# B1: hBD-3: Recombinant human β-defensin 3 produced using an hBD-3-His tag fusion construct cloned into pET-30c; exemplary sequence SEQ ID NO:15 (protein, listed as Homo sapiens)
# chain: MRIHYLLFALLFLFLVPVPGHGGIINTLQKYYCRVRGGRCAVLSCLPKEEQIGKCSTRGRKCCRRKK
# modifications: not fully specified (C-terminus); ends and bridges not checked
# Legend:
# [1] = system: HIV-1 B-HXB2 virions; experiment: Immunogold transmission electron microscopy; assay type: binding; settings: 20 μg/ml, 37° C., 1 h; anti-hBD antibody and 10-nm gold IgG
# Procedure: (§1) (a) CXCR4 tropic HXB2 and CCR5 tropic 97ZA003 HIV-1 strains were incubated with 20 μg/ml hBD-1, -2, or -3 in 10 mM PB for 1 h. Virions were pelleted, washed extensively with PBS and used to infect GHOST X4/R5 cells. RT activity was measured 48 h post-infection. The final two columns represent an additional 20 μg/ml of hBD-2 or -3 during infection. (b) Immunoelectron microscopy analysis showing the interaction of hBD-2 and -3 with HIV-1 and with MT4 cell membrane. X4 HIV-1 HXB2 strain and MT4 cells were incubated with hBD-2 or -3 (20 μg/ml), 37° C., 1 h. Polyclonal anti-hBD-2 or -3 antibodies were added, followed by addition of secondary IgG conjugated with 10-nm gold particles. Arrows indicate hBD-2 and -3 localization to virions and cell membrane.
# (§2) MT4 cells in RPMI, or X4 strain B-HXB2 viral particles in 10 mM phosphate buffer (PB), were incubated with 20 μg/ml hBD-2 and -3 at 37° C. for 1 h. Cells and virions were centrifuged (15 min, 1200 rpm for cells; 30 min, 35 000 3 g for virus) and washed twice with PBS to remove unbound hBD. Cells and virions were mixed and fixed with 4% paraformaldehyde/0.5% glutaraldehyde, dehydrated, embedded in LR WHITE resin (London Resin Company Ltd, Berkshire, UK), and labeled after embedding as described [Briquet et al.]. […]
# [2] = system: MT4 cellular membrane; experiment: Immunogold transmission electron microscopy; assay type: binding, human; settings: 20 μg/ml, 37° C., 1 h; anti-hBD antibody and 10-nm gold IgG
# Procedure: as §1, §2
# [3] = target: CCR5 (Homo sapiens, UniProt P51681); experiment: Flow cytometric analysis of co-receptor surface expression on unstimulated PBMC; assay type: cell-based; design: endogenous in cells; host or cells: unstimulated peripheral blood mononuclear cells (PBMC); settings: 30 μg/ml, 3 h, high salt medium without FBS
# Procedure: (§3) Unstimulated PBMC were treated for 3 hrs with hBD-1, -2, or -3 (30 μg/ml) in DMEM (high salt) in the absence of FBS. The CXCR4 natural ligand SDF-1AE (2 μg/ml) and the CCR5 antagonist PSC-RANTES (100 nM) were used as positive controls. CXCR4 and CCR5 surface expression was calculated using known ratios of QuantiBRITE-PE beads (Becton Dickenson) by flow cytometry. Results are the means of seven experiments±SD.
# (§4) Unstimulated PBMC were treated with 30 μg/ml hBD-1, -2, or -3 in high salt medium (RPMI-1640) in the absence of FBS, 3 h. The CXCR4 natural ligand SDF-1α (R&D Systems, Minneapolis, Minn., USA) and the CCR5 antagonist PSC-RANTES were used as controls. Cells were incubated with peridinin chlorophyll protein-conjugated anti-human CD4 antibody, and either phycoerythrin (PE)-conjugated anti-human CXCR4 antibody, PE-conjugated anti-human CCR5 antibody, or PE-conjugated mouse immunoglobulin G2a (IgG2a), isotype standard (PharmMingen, San Diego, Calif., USA) [Salkowitz et al.]. Fluorescence intensity was reported as receptor density by quantitative flow cytometry (FACSCaliber; Becton Dickenson, San Jose, Calif., USA) [Iyer et al.]. Data were analyzed using CELLQuest software (Becton Dickenson).
# (§5) Surface expression of CXCR4 was decreased by 51%±18% and 52%±20% (SD) respectively after incubation with 30 μg/ml of hBD-2 or hBD-3 (FIG. 5).
# [4] = target: CXCR4 (Homo sapiens, UniProt P61073); experiment: as above; assay type: cell-based; design: endogenous in cells; host or cells: unstimulated peripheral blood mononuclear cells (PBMC); settings: 30 μg/ml, 3 h, high salt medium without FBS
# Procedure: as §3, §4, §5
# CXCR4, sequence (P61073 whole entry): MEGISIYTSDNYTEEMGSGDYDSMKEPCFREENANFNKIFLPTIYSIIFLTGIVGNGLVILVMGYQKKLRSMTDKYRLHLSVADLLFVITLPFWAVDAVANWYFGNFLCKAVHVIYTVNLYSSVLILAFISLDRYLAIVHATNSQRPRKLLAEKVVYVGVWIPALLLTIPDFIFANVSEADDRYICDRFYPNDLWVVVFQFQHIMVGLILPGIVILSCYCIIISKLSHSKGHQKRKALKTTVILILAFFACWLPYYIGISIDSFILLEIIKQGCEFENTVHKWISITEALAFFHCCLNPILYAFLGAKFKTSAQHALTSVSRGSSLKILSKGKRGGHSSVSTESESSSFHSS
# CCR5, sequence (P51681 whole entry): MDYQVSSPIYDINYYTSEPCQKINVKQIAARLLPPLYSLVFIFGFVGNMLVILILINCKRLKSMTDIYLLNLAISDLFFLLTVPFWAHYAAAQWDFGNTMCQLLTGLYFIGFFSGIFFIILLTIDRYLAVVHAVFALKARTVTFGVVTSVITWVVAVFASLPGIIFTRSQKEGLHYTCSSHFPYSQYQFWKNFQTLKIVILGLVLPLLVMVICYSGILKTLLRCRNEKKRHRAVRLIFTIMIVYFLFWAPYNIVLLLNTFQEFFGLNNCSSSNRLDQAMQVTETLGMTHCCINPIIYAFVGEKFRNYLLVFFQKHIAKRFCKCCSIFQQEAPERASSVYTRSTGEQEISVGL
molecule,measurement,setting,value
B1,gold particles bound to virions,[1],bound both to virions and to the MT4 cellular membrane
same,gold particles bound to MT4 cellular membrane,[2],bound both to virions and to the MT4 cellular membrane
same,effect on CCR5 expression,[3],not altered
same,decrease of surface expression of CXCR4 (±SD),[4],52%±20%

# — patent US7442375B2, “Compositions of beta-defensin inducing agents” (Case Western Reserve University, priority 2002, dated 2008)
